Source: US9322000B2, “Methanol dehydrogenase enzymes from Bacillus” (Sinvent AS, priority 2012, dated 2016)

B1: Mdh3-MGA3: NAD-dependent methanol dehydrogenase encoded by chromosomal gene mdh3 of B. methanolicus MGA3, SEQ ID NO. 4 (protein)
chain: MKNTQSAFYMPSVNLFGAGSVNEVGTRLAGLGVKKALLVTDAGLHSLGLSEKIAGIIREAGVEVAIFPKAEPNPTDKNVAEGLEAYNAENCDSIVTLGGGSSHDAGKAIALVAANGGTIHDYEGVDVSKKPMVPLIAINTTAGTGSELTKFTIITDTERKVKMAIVDKHVTPTLSINDPELMVGMPPSLTAATGLDALTHAIEAYVSTGATPITDALAIQAIKIISKYLPRAVANGKDIEAREQMAFAQSLAGMAFNNAGLGYVHAIAHQLGGFYNFPHGVCNAILLPHVCRFNLISKVERYAEIAAFLGENVDGLSTYEAAEKAIKAIERMARDLNIPKGFKELGAKEEDIETLAKNAMNDACALTNPRKPKLEEVIQIIKNAM
modifications: Bacillus methanolicus MGA3
B2: Mdh2-MGA3: NAD-dependent methanol dehydrogenase encoded by chromosomal gene mdh2 of B. methanolicus MGA3, SEQ ID NO. 2 (protein)
chain: MTNTQSAFFMPSVNLFGAGSVNEVGTRLADLGVKKALLVTDAGLHGLGLSEKISSIIRAAGVEVSIFPKAEPNPTDKNVAEGLEAYNAENCDSIVTLGGGSSHDAGKAIALVAANGGKIHDYEGVDVSKEPMVPLIAINTTAGTGSELTKFTIITDTERKVKMAIVDKHVTPTLSINDPELMVGMPPSLTAATGLDALTHAIEAYVSTGATPITDALAIQAIKIISKYLPRAVANGKDIEAREQMAFAQSLAGMAFNNAGLGYVHAIAHQLGGFYNFPHGVCNAVLLPYVCRFNLISKVERYAEIAAFLGENVDGLSTYDAAEKAIKAIERMAKDLNIPKGFKELGAKEEDIETLAKNAMKDACALTNPRKPKLEEVIQIIKNAM
modifications: Bacillus methanolicus MGA3

How the values were obtained:
[1] = Substrate specificity of purified MDH proteins on alternative alcohols; type: biochemical; conditions: all alternative alcohol substrates
Method: FIG. 3. Catalytic activities of purified Mdh (black), Mdh2 (dark grey) and Mdh3 (light grey) on various alcohols (200 mM) tested in vitro. (A) Substrate specificity was analysed for MDHs from B. methanolicus MGA3 in vitro. Alcohol substrates were used at concentrations of 500 mM except for pentanol (300 mM) and hexanol (50 mM). The data were calculated from the mean value from two experiments which were done in triplicate. (B) Substrate specificity for MDHs from B. methanolicus PB1 was analysed in vitro. Alcohol substrates were used at concentrations of 500 mM except for pentanol (300 mM) and hexanol (50 mM). The data were calculated from the mean value from two experiments which were done in triplicate.
Alcohol dehydrogenase activities were measured spectrophotometrically essentially as described previously (Hektor, Kloosterman et al. (2002) Chem 277(49): 46966-46973) and the reaction mixture contained: 100 mM Glycine-KOH pH 9.5 (unless otherwise stated), 5 mM MgSO4, 0.5 mM NAD^+ and 500 mM alcohol (methanol, ethanol, propanol, 1,3-propanediol, or butanol). NAD^+ was substituted with equal concentrations of NADP^+, FMN^+, and FAD^+, when indicated. […] The reactions were started by addition of 5-40 μg of the purified MDH proteins, and the production of NADH was monitored at 340 nm for 4 minutes. […]

[2] = test system: 13C-methanol; assay: 13C-methanol labeling of genetically engineered B. subtilis; type: cell-based; conditions: B. subtilis 168 expressing Act, Mdh3, HxlA
Method: For the labeling experiments we used the B. subtilis strain that expresses Act, Mdh3, HxlA and HxlB and the strain that expresses Act, Mdh3, HxlA, HxlB, GlpX, Fba, Tkt, Pfk and Rpe. As a negative control the B. subtilis strain with the empty pHCMC04 plasmid was used. All B. subtilis strains were grown on M9 medium containing (per liter) 3.48 g Na2HPO4.12H20, 0.60 g of KH2PO4, 0.51 g of NaCl, 2.04 g of NH4Cl, 0.10 g of MgSO4, 4.38 mg of CaCl2, 15 mg of Na2EDTA.2H2O, 4.5 mg of ZnSO4.7H2O, 0.3 mg of CoCl2.6 H2O, 1 mg of MnCl2.4H2O, 1 mg of H3BO3, 0.4 mg of Na2MoO4.2H2O, 3 mg of FeSO4.7H2O and 0.3 mg of CuSO4.5H2O, 10 g of xylose (i.e. inducer) and 5 mg of chloramphenicol. All the cultivations were performed at 37° C. Cells strains were plated from a glycerol stock on a LB agar plate (10 g/l of tryptone, 5 g/l of yeast extract, 10 g/l of NaCl, and 16 g/l agar) containing 5 μg/ml of chloramphenicol and grown afterwards on a LB+chloramphenicol liquid medium for approximately 5 hours. The liquid pre-cultures containing M9 medium were inoculated from the LB cultures at a final OD600 between 1.4 and 1.8. […] The labeling patterns of intracellular metabolites were measured using a Dionex ICS 2000 system (Dionex, Sunnyvale, USA) coupled to a triple quadrupole QTrap 4000 mass spectrometer (Applied Biosystems, Foster City, USA).

[3] = test system: 13C-methanol; assay: 13C-methanol labeling of genetically engineered C. glutamicum; type: cell-based; conditions: C. glutamicum delta ald expressing Mdh2, Hps and Phi; 40 mM 13C-methanol; 30 and 90 minutes
Method: For the labeling experiments we used the C. glutamicum delta ald strain that expresses Mdh2-MGA3 (pVWEx1-Mdh2), Hps and Phi (pEKEX3−Hps+Phi). As a negative control the C. glutamicum delta ald strain with the empty pEKEX3 plasmid was used. All C. glutamicum strains were grown on M9 medium containing (per liter) 3.48 g Na2HPO4.12 H2O, 0.60 g of KH2PO4, 0.51 g of NaCl, 2.04 g of NH4Cl, 0.10 g of MgSO4, 4.38 mg of CaCl2, 15 mg of Na2EDTA.2H2O, 4.5 mg of ZnSO4.7 H2O, 0.3 mg of CoCl2.6 H2O, 1 mg of MnCl2.4H2O, 1 mg of H3BO3, 0.4 mg of Na2MoO4.2H2O, 3 mg of FeSO4.7H2O and 0.3 mg of CuSO4.5H2O. For all the cultivation (M9 or LB), 1 mM of IPTG was used as inducer and 100 μg/ml of spectinomycin and 25 μg/ml of kanamycin were added in the medium as resistant markers. All the cultivations were performed at 30° C. Cell strains were plated from a glycerol stock on a LB agar plate (10 g/l of tryptone, 5 g/l of yeast extract, 10 g/l of NaCl, and 16 g/l agar) and grown afterwards on a LB liquid medium for 6 hours. The liquid pre-cultures containing M9 medium plus 3 g/l ribose were inoculated from the LB cultures at a final OD600 of 0.6 for 12 hours. […] The labeling patterns of intracellular metabolites were measured using a Dionex ICS 2000 system (Dionex, Sunnyvale, USA) coupled to a triple quadrupole QTrap 4000 mass spectrometer (Applied Biosystems, Foster City, USA).

| Molecule | catalytic activity on alternative alcohols compared with the remaining MDHs [1] | 13C labeling of metabolites (mass isotopomer fraction M1) ([2]; HxlB plus overexpressed PPP genes) | 13C labeling of metabolites (mass isotopomer fraction M1) ([2]; HxlB, no PPP genes overexpressed) | 13C label incorporation into metabolites (mass isotopomer fraction M1) [3] |
| --- | --- | --- | --- | --- |
| B1 | significantly higher catalytic activity than the remaining enzymes | significant labeling incorporation was detected | no labeling was found | – |
| B2 | – | – | – | Significant label incorporation into metabolites was observed |
